Data reported in patent US20060212953, “Tr2, tr4, tr2/tr4 double knockouts and uses thereof” (published 2006).

Target: T1, TR4 (testicular orphan nuclear receptor 4, NR2C2) (UniProt P49116 SEQ:1-596)
T1 sequence: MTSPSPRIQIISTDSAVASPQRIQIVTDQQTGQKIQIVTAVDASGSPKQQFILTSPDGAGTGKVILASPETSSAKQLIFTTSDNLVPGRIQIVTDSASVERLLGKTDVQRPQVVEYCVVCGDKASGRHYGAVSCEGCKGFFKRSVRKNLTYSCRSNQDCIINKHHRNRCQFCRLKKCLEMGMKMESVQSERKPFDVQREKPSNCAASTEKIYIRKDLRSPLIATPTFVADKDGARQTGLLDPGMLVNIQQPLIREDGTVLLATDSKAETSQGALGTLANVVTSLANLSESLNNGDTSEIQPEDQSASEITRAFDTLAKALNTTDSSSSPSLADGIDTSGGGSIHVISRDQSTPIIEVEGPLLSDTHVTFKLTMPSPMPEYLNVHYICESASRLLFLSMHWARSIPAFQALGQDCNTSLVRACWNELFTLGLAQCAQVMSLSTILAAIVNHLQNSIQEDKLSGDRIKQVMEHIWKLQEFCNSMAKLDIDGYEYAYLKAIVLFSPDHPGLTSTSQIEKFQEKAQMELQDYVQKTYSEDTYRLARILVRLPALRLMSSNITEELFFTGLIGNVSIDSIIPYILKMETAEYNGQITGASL
Assay: EMSA; supershifted by monoclonal anti-TR4 antibody #15; 10 mM HEPES pH 7.9, 100 mM KCl, 2.5 mM MgCl2, 0.5 mM EDTA, 1 mM DTT, room temperature 15 min
Conditions: tags: rabbit reticulocyte lysate (Promega); label: 32P 5' end
Experimental: TR4 proteins were synthesized in rabbit reticulocyte lysate (Promega), according to the manufacturer's instructions. The oligonucleotide probe (SEQ ID NO:46 nNOS-NHR, bp-198 to -211, 5′-[…]-3′) was end-labeled with [γ]³²P in a T4 polynucleotide kinase reaction (New England Biolabs). The EMSA reaction was performed with 2 μl TR4-containing lysate in an EMSA buffer (10 mM HEPES, pH 7.9, 6% (v/v) glycerol, 2% (v/v) Ficoll, 100 mM KCl, 0.5 mM EDTA, 2.5 mM MgCl₂, and 1 mM dithiothreitol). The reaction mixtures were incubated for 15 min. at room temperature, in the presence or absence of a mouse monoclonal anti-TR4 antibody (#15). The protein-DNA complexes were analyzed on a 5% native polyacrylamide gel. The results were visualized by autoradiography (Storm PhosphorImaging System, Amersham Pharmacia).

B1: nNOS-NHR probe (dsDNA)
DNA 1: CTGGTCAACCTTGACTTCCTT
DNA 2: AAGGAAGTCAAGGTTGACCAG
- binding result: binds
